Results published in the supplement of paper PMC10567573.

B1: TEKT4 (parent)
chain: YARYHQAFADRDQSERQRHESQQL
B2: TRIM14 (parent)
chain: REQADSCREQLDIMNDLSNRVWSI

Variants of: B1
Test: protein stability index of a GFP-peptide fusion (GPS, HEK-293T) (PSI 1-6); higher = more stable
Conditions: c terminus: a fixed tail appended
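Also: lentivirally expressed fusions sorted by FACS into six bins by GFP to DsRed ratio, PSI derived from sequencing read proportions per bin multiplied by bin number.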

Variant	protein stability index
YARYHQAFKDRDQSERQRHESQQL	3.3
YARYHQAFTDRDQSERQRHESQQL	3.36
YARYHQAFRDRDQSERQRHESQQL	2.35
YARYHQAFMDRDQSERQRHESQQL	2.21
YARYHQAFGDRDQSERQRHESQQL	2.6
YARYHQAFQDRDQSERQRHESQQL	2.98
YARYHQAFFDRDQSERQRHESQQL	2.58
YARYHQAFDDRDQSERQRHESQQL	3.86
YARYHQAFHDRDQSERQRHESQQL	3.21
YARYHQAFYDRDQSERQRHESQQL	2.89
YARYHQAFNDRDQSERQRHESQQL	3.09
YARYHQAFPDRDQSERQRHESQQL	3.9
YARYHQAFVDRDQSERQRHESQQL	3.35
YARYHQAFCDRDQSERQRHESQQL	1.67
YARYHQAFLDRDQSERQRHESQQL	3.49
YARYHQAFEDRDQSERQRHESQQL	3.57
YARYHQAFIDRDQSERQRHESQQL	3.12
YARYHQAFSDRDQSERQRHESQQL	2.48
YARYHQAFACRDQSERQRHESQQL	2.36
YARYHQAFAARDQSERQRHESQQL	1.8
YARYHQAFAFRDQSERQRHESQQL	1.99
YARYMQAFADRDQSERQRHESQQL	3.43
YARYIQAFADRDQSERQRHESQQL	3.29
YARYEQAFADRDQSERQRHESQQL	4.54
YARYYQAFADRDQSERQRHESQQL	2.6

Variant	protein stability index
YARYQQAFADRDQSERQRHESQQL	2.98
YARYPQAFADRDQSERQRHESQQL	2.98
YARYDQAFADRDQSERQRHESQQL	4.57
YARYAQAFADRDQSERQRHESQQL	1.91
YARYNQAFADRDQSERQRHESQQL	2.3
YARYTQAFADRDQSERQRHESQQL	3.6
YARYVQAFADRDQSERQRHESQQL	2.87
YARYCQAFADRDQSERQRHESQQL	2.39
YARYFQAFADRDQSERQRHESQQL	2.5
YARYWQAFADRDQSERQRHESQQL	3.19
YARYLQAFADRDQSERQRHESQQL	3.47
YARYKQAFADRDQSERQRHESQQL	2.88
YARYRQAFADRDQSERQRHESQQL	3
YARYGQAFADRDQSERQRHESQQL	1.44
YARYSQAFADRDQSERQRHESQQL	2.16
YQRYHQAFADRDQSERQRHESQQL	1.84
YHRYHQAFADRDQSERQRHESQQL	4.12
YWRYHQAFADRDQSERQRHESQQL	2.68
YLRYHQAFADRDQSERQRHESQQL	2.09
YERYHQAFADRDQSERQRHESQQL	4.29
YSRYHQAFADRDQSERQRHESQQL	1.92
YPRYHQAFADRDQSERQRHESQQL	2.7
YCRYHQAFADRDQSERQRHESQQL	1.48
YIRYHQAFADRDQSERQRHESQQL	2.5
YTRYHQAFADRDQSERQRHESQQL	1.67

Variant	protein stability index
YYRYHQAFADRDQSERQRHESQQL	3.58
YFRYHQAFADRDQSERQRHESQQL	2.87
YNRYHQAFADRDQSERQRHESQQL	2.85
YMRYHQAFADRDQSERQRHESQQL	2.27
YRRYHQAFADRDQSERQRHESQQL	4.27
YVRYHQAFADRDQSERQRHESQQL	1.87
YKRYHQAFADRDQSERQRHESQQL	3.82
YDRYHQAFADRDQSERQRHESQQL	4.3
YARYHQEFADRDQSERQRHESQQL	3.72
YARYHQWFADRDQSERQRHESQQL	2.02
YARYHQQFADRDQSERQRHESQQL	3.03
YARYHQCFADRDQSERQRHESQQL	2.88
YARYHQGFADRDQSERQRHESQQL	3.18
YARYHQSFADRDQSERQRHESQQL	3.2
YARYHQNFADRDQSERQRHESQQL	3.07
YARYHQYFADRDQSERQRHESQQL	1.69
YARYHQIFADRDQSERQRHESQQL	1.81
YARYHQTFADRDQSERQRHESQQL	3.48
YARYHQLFADRDQSERQRHESQQL	3.3
YARYHQVFADRDQSERQRHESQQL	2.06
YARYHQDFADRDQSERQRHESQQL	3.7
YARYHQRFADRDQSERQRHESQQL	3.5
YARYHQHFADRDQSERQRHESQQL	2.2
YARYHQKFADRDQSERQRHESQQL	3.25
YARYHQPFADRDQSERQRHESQQL	3.56

Variant	protein stability index
YARYHQFFADRDQSERQRHESQQL	2.99
YARCHQAFADRDQSERQRHESQQL	2.39
YARRHQAFADRDQSERQRHESQQL	3.81
YARMHQAFADRDQSERQRHESQQL	3.21
YARQHQAFADRDQSERQRHESQQL	3.85
YARWHQAFADRDQSERQRHESQQL	1.6
YARAHQAFADRDQSERQRHESQQL	3.28
YARIHQAFADRDQSERQRHESQQL	3.32
YARTHQAFADRDQSERQRHESQQL	2.8
YAREHQAFADRDQSERQRHESQQL	4.1
YARSHQAFADRDQSERQRHESQQL	3.44
YARGHQAFADRDQSERQRHESQQL	3.08
YARPHQAFADRDQSERQRHESQQL	4
YARNHQAFADRDQSERQRHESQQL	2.99
YARHHQAFADRDQSERQRHESQQL	2.36
YARVHQAFADRDQSERQRHESQQL	3.51
YARDHQAFADRDQSERQRHESQQL	3.46
YARKHQAFADRDQSERQRHESQQL	3.78
YARFHQAFADRDQSERQRHESQQL	2.12
YARLHQAFADRDQSERQRHESQQL	2.92
WARYHQAFADRDQSERQRHESQQL	3.69
TARYHQAFADRDQSERQRHESQQL	4.62
LARYHQAFADRDQSERQRHESQQL	4.55
MARYHQAFADRDQSERQRHESQQL	4.44
DARYHQAFADRDQSERQRHESQQL	5.23

Variant	protein stability index
KARYHQAFADRDQSERQRHESQQL	4.76
RARYHQAFADRDQSERQRHESQQL	4.08
NARYHQAFADRDQSERQRHESQQL	4.9
PARYHQAFADRDQSERQRHESQQL	5.02
IARYHQAFADRDQSERQRHESQQL	4.55
FARYHQAFADRDQSERQRHESQQL	2.07
CARYHQAFADRDQSERQRHESQQL	3.46
QARYHQAFADRDQSERQRHESQQL	4.76
SARYHQAFADRDQSERQRHESQQL	4.87
AARYHQAFADRDQSERQRHESQQL	3.9
GARYHQAFADRDQSERQRHESQQL	5.11
HARYHQAFADRDQSERQRHESQQL	4.54
VARYHQAFADRDQSERQRHESQQL	4.91
EARYHQAFADRDQSERQRHESQQL	5
YAFYHQAFADRDQSERQRHESQQL	2.38
YAHYHQAFADRDQSERQRHESQQL	2.64
YADYHQAFADRDQSERQRHESQQL	3
YAWYHQAFADRDQSERQRHESQQL	2.2
YANYHQAFADRDQSERQRHESQQL	2.79
YAKYHQAFADRDQSERQRHESQQL	2.3
YACYHQAFADRDQSERQRHESQQL	2.84
YAPYHQAFADRDQSERQRHESQQL	1.6
YAMYHQAFADRDQSERQRHESQQL	2.6
YAEYHQAFADRDQSERQRHESQQL	2.06
YAVYHQAFADRDQSERQRHESQQL	3.11

Variant	protein stability index
YALYHQAFADRDQSERQRHESQQL	2.97
YAGYHQAFADRDQSERQRHESQQL	1.98
YASYHQAFADRDQSERQRHESQQL	2.36
YAIYHQAFADRDQSERQRHESQQL	3.4
YAQYHQAFADRDQSERQRHESQQL	2.57
YAYYHQAFADRDQSERQRHESQQL	2.88
YATYHQAFADRDQSERQRHESQQL	2.79
YAAYHQAFADRDQSERQRHESQQL	2.85
YARYHQAHADRDQSERQRHESQQL	4.58
YARYHQAIADRDQSERQRHESQQL	4.31
YARYHQAKADRDQSERQRHESQQL	4.01
YARYHQARADRDQSERQRHESQQL	3.73
YARYHQAYADRDQSERQRHESQQL	2.95
YARYHQAAADRDQSERQRHESQQL	4.75
YARYHQAVADRDQSERQRHESQQL	3.92
YARYHQAEADRDQSERQRHESQQL	4.14
YARYHQANADRDQSERQRHESQQL	4.61
YARYHQASADRDQSERQRHESQQL	3.86
YARYHQATADRDQSERQRHESQQL	3.66
YARYHQADADRDQSERQRHESQQL	4.63
YARYHQAWADRDQSERQRHESQQL	1.4
YARYHQALADRDQSERQRHESQQL	4.72
YARYHQAPADRDQSERQRHESQQL	4.75
YARYHQAQADRDQSERQRHESQQL	4
YARYHQAMADRDQSERQRHESQQL	3.92

Variant	protein stability index
YARYHQAGADRDQSERQRHESQQL	3.83
YARYHQACADRDQSERQRHESQQL	3.97
YARYHKAFADRDQSERQRHESQQL	2.31
YARYHHAFADRDQSERQRHESQQL	2.25
YARYHRAFADRDQSERQRHESQQL	2.26
YARYHNAFADRDQSERQRHESQQL	2.28
YARYHSAFADRDQSERQRHESQQL	1.77
YARYHTAFADRDQSERQRHESQQL	2.34
YARYHDAFADRDQSERQRHESQQL	2.73
YARYHIAFADRDQSERQRHESQQL	2.24
YARYHGAFADRDQSERQRHESQQL	2.64
YARYHCAFADRDQSERQRHESQQL	2.02
YARYHVAFADRDQSERQRHESQQL	2.69
YARYHEAFADRDQSERQRHESQQL	2.62
YARYHLAFADRDQSERQRHESQQL	2.02
YARYHPAFADRDQSERQRHESQQL	2.69
YARYHAAFADRDQSERQRHESQQL	1.62
YARYHWAFADRDQSERQRHESQQL	2.08
YARYHYAFADRDQSERQRHESQQL	2.54
YARYHFAFADRDQSERQRHESQQL	3.06
YARYHMAFADRDQSERQRHESQQL	2.32

Variants of: B2
Test: as above
Conditions: c terminus: a fixed tail appended

Variant	protein stability index
REQADSCREQLDIMNDLSNRVWSM	2.79
REQADSCREQLDIMNDLSNRVWSE	3.68
REQADSCREQLDIMNDLSNRVWSL	2.46
REQADSCREQLDIMNDLSNRVWSG	3.72
REQADSCREQLDIMNDLSNRVWSQ	3.34
REQADSCREQLDIMNDLSNRVWSP	3.64
REQADSCREQLDIMNDLSNRVWSR	3.44
REQADSCREQLDIMNDLSNRVWSK	3.55
REQADSCREQLDIMNDLSNRVWSS	3.46
REQADSCREQLDIMNDLSNRVWSH	3.6
REQADSCREQLDIMNDLSNRVWSD	4.01
REQADSCREQLDIMNDLSNRVWSF	2.25
REQADSCREQLDIMNDLSNRVWSV	2.17
REQADSCREQLDIMNDLSNRVWST	4.01
REQADSCREQLDIMNDLSNRVWSY	2.53
REQADSCREQLDIMNDLSNRVWSN	3.95
REQADSCREQLDIMNDLSNRVWSW	2.31
